# According to PMC5518211:
# Columns and labels:
# [1] = target: Calmodulin labeled with Cyanine5 (not stated (human brain CaM or recombinant bovine CaM bought)); assay: MST
# [2] = target: Calmodulin (not stated (human brain CaM or recombinant bovine CaM bought)) (UniProt P0DP23); assay: SPR
# Sequence of Full-length recombinant human neurogranin with a His-tag at the N-terminus (Q92686 whole entry): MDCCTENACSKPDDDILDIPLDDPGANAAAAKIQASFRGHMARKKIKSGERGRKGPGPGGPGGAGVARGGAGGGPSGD
substance,measurement,setting,value
Full-length recombinant human neurogranin with a His-tag at the N-terminus (from UniProt Q92686) (natural protein),Kd,[1],890 nM
IQ-motif containing peptide of neurogranin (Ng 27-50) (from UniProt Q92686 27-50),Kd,[2],14000 nM
Peptide corresponding to the CaM-binding region of CaMKIIα (CaMKII 290-309) (from UniProt Q9UQM7 290-309),Kd,[1],190 nM
